Assay results published in patent US20240174744A1 (SCIRHOM, published 2024).

Target: T1, hiR2-FL-L539A-T7 (human iRhom2 full length L539A, 3 x T7 tag) (human, UniProt Q6PJF5 1-856)
T1 sequence: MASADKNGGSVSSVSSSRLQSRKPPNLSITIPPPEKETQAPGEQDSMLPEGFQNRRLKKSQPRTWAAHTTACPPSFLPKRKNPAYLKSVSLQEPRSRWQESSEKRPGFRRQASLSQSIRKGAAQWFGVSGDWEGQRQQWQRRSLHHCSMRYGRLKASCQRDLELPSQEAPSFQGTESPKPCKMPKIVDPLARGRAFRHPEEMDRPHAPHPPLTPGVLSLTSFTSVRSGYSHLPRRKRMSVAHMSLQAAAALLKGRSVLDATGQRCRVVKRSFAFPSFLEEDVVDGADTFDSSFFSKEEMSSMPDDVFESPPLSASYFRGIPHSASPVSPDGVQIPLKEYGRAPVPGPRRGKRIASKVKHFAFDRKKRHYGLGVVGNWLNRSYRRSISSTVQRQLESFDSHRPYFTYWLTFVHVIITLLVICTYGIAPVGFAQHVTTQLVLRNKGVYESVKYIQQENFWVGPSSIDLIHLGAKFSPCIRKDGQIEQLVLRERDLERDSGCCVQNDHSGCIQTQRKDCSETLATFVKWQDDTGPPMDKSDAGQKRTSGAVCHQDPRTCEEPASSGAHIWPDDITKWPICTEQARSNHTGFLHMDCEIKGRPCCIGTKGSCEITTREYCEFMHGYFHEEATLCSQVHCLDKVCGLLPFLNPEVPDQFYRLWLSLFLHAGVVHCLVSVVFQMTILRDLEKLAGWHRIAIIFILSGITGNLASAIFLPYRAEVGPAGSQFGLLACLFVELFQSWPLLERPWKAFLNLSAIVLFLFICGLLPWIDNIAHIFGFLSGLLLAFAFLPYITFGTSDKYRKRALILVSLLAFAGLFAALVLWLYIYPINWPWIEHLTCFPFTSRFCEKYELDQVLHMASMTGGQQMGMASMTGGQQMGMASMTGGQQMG
Test: FACS on cells of the row L539A, vs human iR2 wild type = 100%
Source text: In brief, immortalized MEF-DKO-hiR2-FL-G498A-T7, MEF-DKO-hiR2-FL-Q502R-T7, MEF-DKO-hiR2-FL-I509V-T7, MEF-DKO-hiR2-FL-Q512S-T7, MEF-DKO-hiR2-FL-R513E-T7, MEF-DKO-hiR2-FL-K514E-T7, MEF-DKO-hiR2-FL-D515E-T7, MEF-DKO-hiR2-FL-E518S-T7, MEF-DKO-hiR2-FL-T522V-T7, MEF-DKO-hiR2-FL-F523W-T7, MEF-DKO-hiR2-FL-Q527P-T7, MEF-DKO-hiR2-FL-D528I-T7, MEF-DKO-hiR2-FL-D529H-T7, MEF-DKO-hiR2-FL-T530P-T7, MEF-DKO-hiR2-FL-G531S-T7, MEF-DKO-hiR2-FL-P532A-T7, MEF-DKO-hiR2-FL-M534-T7, MEF-DKO-hiR2-FL-D535-T7, MEF-DKO-hiR2-FL-K536-T7, MEF-DKO-hiR2-FL-S537E-T7, MEF-DKO-hiR2-FL-D538L-T7, MEF-DKO-hiR2-FL-L539A-T7, MEF-DKO-hiR2-FL-Q541H-T7, MEF-DKO-hiR2-FL-T544Q-T7, MEF-DKO-hiR2-FL-S545F-T7, MEF-DKO-hiR2-FL-A547S-T7, MEF-DKO-hiR2-FL-T555V-T7, MEF-DKO-hiR2-FL-E557D-T7, MEF-DKO-hiR2-FL-A560S-T7 and MEF-DKO-hiR2-FL-S562E-T7 cells were harvested with 10 mM EDTA in PBS, washed and resuspended in FACS buffer (PBS, 3% FBS, 0.05% sodium azide), and seeded in Nunc U-bottom 96-well plates (Thermo Fisher Scientific, USA) at approximately 3×10⁵ cells per well. To pellet cells and remove supernatants, the plates were centrifuged at 1,500 rpm and 4° C. for 3 minutes. For primary staining, cells were resuspended in 100 μl per well of either FACS buffer alone (controls) or the purified antibodies 3, 5, 16, 22, 34, 42, 43, 44, 48, and 50 of the present disclosure at 3 μg/ml in FACS buffer and incubated on ice for 1 hour. Afterwards, plates were centrifuged at 1,500 rpm and 4° C. for 3 minutes and washed twice with 200 μl per well of FACS buffer. For secondary staining, cells were spun down and resuspended in 100 μl per well of PE-conjugated goat anti-mouse IgG F(ab′)2 detection fragment (Dianova, Germany) diluted 1:100 in FACS buffer. Protected from light, the cell suspensions were incubated on ice for 1 hour. Plates were then centrifuged at 1,500 rpm and 4° C. for 3 minutes and washed three times with 200 μl per well of FACS buffer. Finally, cells were resuspended in 150 μl per well of FACS buffer and analyzed using a BD Accuri™ C6 Plus flow cytometer (Becton Dickinson, Germany).

B1: antibody 43 (antibody, V domains shown)
VH: QVALKESGPGILQPSQTLSLTCSFSGFSLSTFGMGVGWIRQSSGKGLEWLANIWWDDDKYYNPALKSRLTISKDASKNQAFLKIANVDTADTATYYCARIGNYGSNYWYFDVWGTGTTVTVSS
VL: QIVLTQSPAIMSASPGERVTMTCSANSRISYMYWYQQKPGSSPRLLIYDTSNLASGVPVRFSGSGSGTSYSLTISRMEAEDAATYNCQQWSSYPLTFGAGTKLELK
notes: Mouse IgG, kappa light chain; also called clone #43
- grade of loss of binding vs wild type: 3 grade (3 => 95% loss of binding vs wild type)

B2: antibody 44 (antibody, V domains shown)
VH: QVTLKESGPGILQPSQTLSLTCSFSGFSLSTFGMGVGWIRQPSEKGLEWLAHIWWDDDKYYNPALKSRLTISKDTSKNQIFLKITNVDTAETATYYCSRIGNYGSNYWYFDVWGTGTTVTVSS
VL: QIVLTQSPAVMSASPGEKVTMTCTASSSVYYMYWYQQTPGSSPRLLIYDTSNLASGVPVRFSGSGSGTSYSLTISRMEAEDAATYYCQQWNTYPLTFGAGTKLELK
notes: Mouse IgG, kappa light chain; also called clone #44; m44
- grade of loss of binding vs wild type: 3 grade (3 => 95% loss of binding vs wild type)

B3: antibody 5 (antibody, V domains shown)
VH: QVTLKESGPGILQPSQTLSLTCSFSGFSLSTFGMGVGWIRQPSGKGLEWLAHIWWDDEKYYNSALKSRLTISKATSKNQAFLKIANVDTADTATYYCARISNYGSNYWYFNVWGTGTTVTVSS
VL: QVVLTQSPALMSASPGEKVTMTCSAGSSVSCMYWYQQKPGSSPRVLIYDTSNLASGVPARFTGSGSGTSYSLTISRMEAEDAASYYCQQWNSYPLTFGAGTKLELK
notes: Mouse IgG, kappa light chain; also called clone #5; purified antibody 5
- grade of loss of binding vs wild type: 3 grade (3 => 95% loss of binding vs wild type)

B4: antibody 22 (antibody, V domains shown)
VH: QVTLKESGPGILQPSQTLSLTCSFSGFSLSTFGMGVGWIRQPSGKGLEWLAHIWWDDEKYYNSALKSRLTISKATSKNQVFLKIANVDTADTATYYCARISNYGSNYWYFNVWGTGTTVTVSS
VL: QVVLTQSPALMSASPGEKVTMTCSAGSSVSYMYWYQQKPGSSPRVLIYDTSNLASGVPARFTGSGSGTSYSLTISRMEAEDAATYYCQQWNSYPLTFGAGTKLELK
notes: Mouse IgG, kappa light chain; also called clone #22; m22
- grade of loss of binding vs wild type: 3 grade (3 => 95% loss of binding vs wild type)

B5: antibody 42 (antibody, V domains shown)
VH: QVTLKESGPGILQPSQTLSLTCSLSGFSLSTFGRGVGWIRQPSGKGLEWLAHIWWDDEKYYNPALKSRLTISKDTSKNQVFLRIANVDTADTATYYCARIQNYGSNYWYFDVWGTGTTVTVSS
VL: LIVLTQSPAIMSASPGEKVTMTCGATSRISYMFWYQQKPGSSPRVLIYDTSNLASGVPVRFSGSGSGTSYSLTISRVEAEDVATYYCQQWNSYPLTFGAGTKLELK
notes: Mouse IgG, kappa light chain; also called clone #42; m42
- grade of loss of binding vs wild type: 3 grade (3 => 95% loss of binding vs wild type)

B6: antibody 3 (antibody, V domains shown)
VH: QVTLKESGPGILQPSQTLSLTCSFSGFSLTTFAMGIGWVRQPSGKGLEWLAHIWWDGEKYNNPVLKSRLTISKDTSKNQVFLRIANVDTPDTATYYCARISSIYYIIDNWGQGTSVTVSS
VL: DIVLTQSPATLSVTPGHSVSLSCRASQSISNNLHWYQKKSHESPRLLIKYVSQSISGIPSRFSGSGSGTDFTLSINSVETEDFGMYFCQQSYNWPLTFGAGTKLELK
notes: Mouse IgG, kappa light chain; also called clone #3; purified antibody 3
- grade of loss of binding vs wild type: 3 grade (3 => 95% loss of binding vs wild type)

B7: antibody 34 (antibody, V domains shown)
VH: QVTLKESGPGILQPSQTLSLTCSFSGFSLSTFSLGVGWIRQSSGKGLEWLAHIWWDDEKYYNPALKSRLTISKDTSKNQVFLKIANVDAADTATYYCARAYYSKSYYALDYWGQGTSVTVSS
VL: DIQMTQSPSSLSASLGERVSLTCRASQEISGYLSWLQQKPDGTIKRLIYAASTLDSGVPKRFSGSRSGSDYSLAISSLESEDFADYYCLQYANFPFTFGSGTKLEIK
notes: Mouse IgG, kappa light chain; also called clone #34; m34
- grade of loss of binding vs wild type: 3 grade (3 => 95% loss of binding vs wild type)
